From paper PMC12632274, “The PA2803-encoded PcrP exhibits a novel non-catalytic function and contributes to polymyxin B resistance in P. aeruginosa” (Journal of Bacteriology, 2025)

Molecular target: the molecule itself
Test: cross-linking; 50 µM purified PcrP with 0.02, 0.05, 0.1 and 0.2% glutaraldehyde, 2 min, 20 mM HEPES pH 7.8, 50 mM NaCl, 1% glycerol; stopped with Tris-HCl; 12% SDS-PAGE, Coomassie

B1: 6xHis-PcrP (PA2803), recombinant, purified from E. coli (natural protein)
chain: MPSSDQLPRFTALLFGLSGGLVDFGARTLSLALLRSHPHSPAEHLRDASLLPFAEAQSFLLRRKPNKSERQRLEQALDEAAGEQAEAIAGAVALLESLDEQRIPYAWQDELPESVCQRLAAPLGRANALIPLAGARPWPAPDGCWQALARLGIERLDGCVLVSAQPRQLQAGLNAGLWTIGLAASGPSCGLSPADWDALGHTERDRLRADATLELYRLGVHSVIDHLGELQPCLHDLAVRRLKGEKP
notes: PcrP (PA2803), Pseudomonas aeruginosa PAO1; cloned NdeI/EcoRI into pSKB3; No removal of the His tag is described; also called 6XHis-PA2803; pAAK001 construct; source: E. coli BL21(DE3), purified (Ni-NTA)
- stoichiometry N: 2
